Reference: paper PMC1450329

T1: MutS wild-type (Escherichia coli, UniProt P23909 1-853)
T1 sequence: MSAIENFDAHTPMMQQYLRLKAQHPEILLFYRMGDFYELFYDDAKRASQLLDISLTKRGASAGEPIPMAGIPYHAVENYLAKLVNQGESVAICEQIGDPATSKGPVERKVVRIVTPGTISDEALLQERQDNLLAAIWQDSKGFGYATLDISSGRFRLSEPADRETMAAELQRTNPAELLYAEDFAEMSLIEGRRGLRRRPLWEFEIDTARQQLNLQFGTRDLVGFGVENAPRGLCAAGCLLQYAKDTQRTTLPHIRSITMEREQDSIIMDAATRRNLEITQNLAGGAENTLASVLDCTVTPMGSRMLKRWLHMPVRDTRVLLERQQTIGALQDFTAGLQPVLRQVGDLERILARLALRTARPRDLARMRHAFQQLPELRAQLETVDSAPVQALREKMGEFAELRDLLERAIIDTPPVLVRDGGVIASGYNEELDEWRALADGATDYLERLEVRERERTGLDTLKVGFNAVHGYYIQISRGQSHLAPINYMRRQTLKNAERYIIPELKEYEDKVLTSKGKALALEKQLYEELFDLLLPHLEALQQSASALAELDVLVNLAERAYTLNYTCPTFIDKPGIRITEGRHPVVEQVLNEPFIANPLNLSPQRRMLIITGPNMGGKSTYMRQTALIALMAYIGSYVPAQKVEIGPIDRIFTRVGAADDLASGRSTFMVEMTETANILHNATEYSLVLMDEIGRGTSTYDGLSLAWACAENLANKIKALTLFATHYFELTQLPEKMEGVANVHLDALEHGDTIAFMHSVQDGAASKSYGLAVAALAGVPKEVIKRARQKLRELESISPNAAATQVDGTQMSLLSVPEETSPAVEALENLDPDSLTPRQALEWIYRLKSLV

T2: MutS-E38A (Escherichia coli, UniProt P23909 1-853, E38A)
T2 sequence: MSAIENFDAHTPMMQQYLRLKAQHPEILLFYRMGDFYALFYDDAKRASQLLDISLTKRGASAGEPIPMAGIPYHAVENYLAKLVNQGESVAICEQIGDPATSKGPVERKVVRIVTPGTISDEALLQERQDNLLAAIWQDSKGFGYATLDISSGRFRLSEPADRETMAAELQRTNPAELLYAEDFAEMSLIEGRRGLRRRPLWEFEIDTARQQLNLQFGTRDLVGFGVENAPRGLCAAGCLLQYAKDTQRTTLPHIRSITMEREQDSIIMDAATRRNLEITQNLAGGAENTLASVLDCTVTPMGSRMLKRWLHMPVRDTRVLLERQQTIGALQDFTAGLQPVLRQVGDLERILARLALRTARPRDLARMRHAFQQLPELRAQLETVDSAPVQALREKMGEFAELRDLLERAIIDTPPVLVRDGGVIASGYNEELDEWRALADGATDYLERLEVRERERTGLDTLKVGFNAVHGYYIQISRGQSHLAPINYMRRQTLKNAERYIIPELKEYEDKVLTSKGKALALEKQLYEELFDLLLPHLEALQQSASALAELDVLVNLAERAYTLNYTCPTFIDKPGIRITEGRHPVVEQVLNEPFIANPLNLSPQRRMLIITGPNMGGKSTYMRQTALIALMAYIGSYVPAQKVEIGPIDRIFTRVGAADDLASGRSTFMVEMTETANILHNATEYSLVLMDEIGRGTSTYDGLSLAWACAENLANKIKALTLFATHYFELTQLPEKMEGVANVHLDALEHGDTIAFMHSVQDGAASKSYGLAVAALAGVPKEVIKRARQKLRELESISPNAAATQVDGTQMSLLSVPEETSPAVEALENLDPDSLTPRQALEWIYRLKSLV

B1: G/T mismatch heteroduplex 30mer (dsDNA)
DNA 1: ACCTGTCTGGCAACACTGTCACCGTCGTAT
DNA 2: ATACGACGGTGACAGTGTTGCTAGACAGGT
B2: CP-GpG/CT cisplatinated mismatch 30mer (dsDNA)
DNA 1: ACCTGTCTGGCAACACTGTCACCGTCGTAT
DNA 2: ATACGACGGTGACAGTGTTGCTAGACAGGT
modifications: cisplatin 1,2-GpG intrastrand cross-link at G9-G10 of strand 1
B3: CP-GpG/CC cisplatinated homoduplex 30mer (dsDNA)
DNA 1: ACCTGTCTGGCAACACTGTCACCGTCGTAT
DNA 2: ATACGACGGTGACAGTGTTGCCAGACAGGT
modifications: cisplatin 1,2-GpG intrastrand cross-link at G9-G10 of strand 1
B4: G/C homoduplex 30mer (dsDNA)
DNA 1: ACCTGTCTGGCAACACTGTCACCGTCGTAT
DNA 2: ATACGACGGTGACAGTGTTGCCAGACAGGT

Biological target: T1, MutS wild-type
Assay: fluorescence anisotropy

| Binder | Kd [nM] |
| --- | --- |
| B1 | 100 ± 8 |
| B2 | 360 ± 46 |
| B3 | 1300 ± 65 |

Biological target: T1, MutS wild-type
Assay: fluorescence anisotropy
Remark: another data set of the same source

| Binder | Kd [nM] |
| --- | --- |
| B3 | 1340 ± 580 |
| B4 | 1080 ± 720 |

Biological target: T2, MutS-E38A
Assay: fluorescence anisotropy

| Binder | Kd [nM] |
| --- | --- |
| B1 | 160 ± 58 |
| B2 | 200 ± 69 |
| B3 | 600 ± 78 |
| B4 | 610 ± 58 |
